Source: US20250333514A1 (CDR LIFE, published 2025)
Like-named read-outs stand apart in the source and are kept apart here.

Tests used:
Assay in all cases: SPR (Biacore 8K), pMHC captured, Fab-scFv analyte
[1] = target: HLA-A*02:01 loaded with PRAME peptide H5R (human, Non-covalent three-chain complex; biotinylated for capture on the chip, site or tag of biotinylation not stated.)
Method: (§1) Recombinantly produced hits in Fab-scFv format, as described in Example 4, were evaluated for their ability to bind HLA-A*02:01/PRAME antigen. Binding characterization was performed by surface plasmon resonance (SPR) using a Biacore™ 8k (Cytiva) device. Briefly, 3000 RU of Biotin CAPture reagent (Cytiva) was immobilized on a Series S Sensor Chip CAP (Cytiva) and the biotinylated ligand HLA-A*02:01/PRAME (SEQ ID NO: 68) was diluted in HPS-EP+ running buffer (TEKNOVA) and captured for 300 s at a flow rate of 2 μL/min at flow cell 2 resulting in a ligand capture level of >100 RU. Subsequently, at least three consecutive analyte injections were performed at suitable concentrations applying the single-cycle-kinetics mode at a flow rate of 30 μL/min with an association time of 90 s and the dissociation time set to >400 s. The chip surface was regenerated according to the manufacturer's instructions. After reference flow cell signal and blank injections subtraction, the data was fit to a 1:1 Langmuir binding model to determine the association rate constant kₐ and dissociation rate constant kd and calculate the equilibrium dissociation constant KD (kd/kₐ), also denoted as affinity, using the Biacore™ Insight Evaluation software.
(§2) The molecular recognition profile of monovalent (Fab-scFv) antigen binding molecules M3076 and M3287 for HLA-A*02:01/PRAME binding (equivalent bivalent (Fab-(scFv)₂) antigen binding molecules are M3167 and M3292, respectively) were determined by SPR measurements with HLA-A*02:01 complexes loaded with PRAME peptide or peptides containing a single amino acid substitution to alanine, arginine or aspartic acid. The kinetic parameters for each HLA-A*02:01 complex loaded with a peptide was determined by SPR, according to the previously described method in Example 5.

[2] = target: HLA-A*02:01 loaded with PRAME peptide L2R (human, Non-covalent three-chain complex; biotinylated for capture on the chip, site or tag of biotinylation not stated.)
Method: as §1, §2

[3] = target: HLA-A*02:01 loaded with PRAME peptide Q4R (human, Non-covalent three-chain complex; biotinylated for capture on the chip, site or tag of biotinylation not stated.)
Method: as §1, §2

[4] = target: T1, HLA-A*02:01/PRAME antigen (recombinant, … on HLA-A*02:01) (human, Complex biotinylated for SPR capture; site of biotin and any tag not stated, not in the letters.)
T1 construct: also called PRAME target; pMHC
Method: as §1, §2

[5] = target: HLA-A*02:01 loaded with PRAME peptide L3R (human, Non-covalent three-chain complex; biotinylated for capture on the chip, site or tag of biotinylation not stated.)
Method: as §1, §2

[6] = target: HLA-A*02:01 loaded with PRAME peptide L6R (human, Non-covalent three-chain complex; biotinylated for capture on the chip, site or tag of biotinylation not stated.)
Method: as §1, §2

[7] = target: HLA-A*02:01 loaded with PRAME peptide G8R (human, pMHC ligand was biotinylated for capture (Example 5); site or tag of biotinylation not disclosed)
Method: as §1, §2

[8] = target: HLA-A*02:01 loaded with PRAME peptide I7R (human, pMHC ligand was biotinylated for capture (Example 5); site or tag of biotinylation not disclosed)
Method: as §1, §2

[9] = target: HLA-A*02:01 loaded with PRAME peptide L9R (human, pMHC ligand was biotinylated for capture (Example 5); site or tag of biotinylation not disclosed)
Method: as §1, §2

[10] = target: HLA-A*02:01 loaded with PRAME peptide S1R (human, Non-covalent three-chain complex; biotinylated for capture on the chip, site or tag of biotinylation not stated.)
Method: as §1, §2

[11] = target: T1, HLA-A*02:01/PRAME antigen (recombinant, …); remark: listed apart in the source
Method: as §1, §2

[12] = target: HLA-A*02:01 loaded with PRAME peptide I7D (human, Complex was biotinylated for capture on the SPR chip; site or tag of biotinylation not disclosed and not in the letters.)
Method: as §1, §2

[13] = target: HLA-A*02:01 loaded with PRAME peptide G8D (human, Complex was biotinylated for capture on the SPR chip; site or tag of biotinylation not disclosed and not in the letters.)
Method: as §1, §2

[14] = target: HLA-A*02:01 loaded with PRAME peptide L9D (human, Complex was biotinylated for capture on the SPR chip; site or tag of biotinylation not disclosed and not in the letters.)
Method: as §1, §2

[15] = target: HLA-A*02:01 loaded with PRAME peptide S1D (human, pMHC ligand was biotinylated for capture (Example 5); site or tag of biotinylation not disclosed)
Method: as §1, §2

[16] = target: HLA-A*02:01 loaded with PRAME peptide H5D (human, pMHC ligand was biotinylated for capture (Example 5); site or tag of biotinylation not disclosed)
Method: as §1, §2

[17] = target: HLA-A*02:01 loaded with PRAME peptide L3D (human, pMHC ligand was biotinylated for capture (Example 5); site or tag of biotinylation not disclosed)
Method: as §1, §2

[18] = target: HLA-A*02:01 loaded with PRAME peptide L2D (human, pMHC ligand was biotinylated for capture (Example 5); site or tag of biotinylation not disclosed)
Method: as §1, §2

Kd [1] [nM] | Kd [2] [nM] | Kd [3] [nM] | Kd [4] [nM] | Kd [5] [nM] | binding result [6] | binding result [7] | Kd [8] [nM] | Kd [9] [nM] | Kd [10] [nM] | Kd [11] [nM] | binding result [12] | binding result [13] | Kd [14] [nM] | Kd [15] [nM] | Kd [16] [nM] | Kd [17] [nM] | binding result [18] | binding result [1] | Binder
93 | 0.04 | 0.08 | 0.08 | 1 | no binding | no binding | 18 | 1.4 | 0.08 | 0.08 | no binding | no binding | 0.83 | 0.06 | 0.44 | 0.09 | no binding |  | M3076 (bispecific antibody, Humanized variant of M2638, monovalent Fab-scFv; bivalent equivalent is M3167) heavy: EVQLVESGGGLVQPGGSLRLSCAASGFTFSTYAMNWVRQAPGKGLEWVGRIRSKYNNYATYYADSVKGRFTISRDDSKNTLYLQMNSLRAEDTAVYYCVRHGNFGDSYVSWFAYWGQGTLVTVSSASTKGPSVFPLAPSSKSTSGGTAALGCLVKDYFPEPVTVSWNSGALTSGVHTFPAVLQSSGLYSLSSVVTVPSSSLGTQTYICNVNHKPSNTKVDKKVEPKSCGGGGSDIQMTQSPSSLSASVGDRVTITCRSSQSVYNNLLGWYQQKPGKAPKLLIYSASTLASGVPSRFSGSGSGTDFTLTISSLQPEDFATYYCQGTYYNGDWYYPFGCGTKVEIKGGGGSGGGGSGGGGSGGGGSQVQLVESGGGSVQPGRSLRLSCAASGFDFSTYGVSWVRQAPGKCLEWIGYIDPVYGSTHYADSVKGRFTISRDNSKNTLYLQMNSLRAEDTASYYCVRDLYAGSSGYYMIYSLWGQGTSVTVSS light: QAVVTQEPSLTVSPGGTVTLTCGSSTGAVTTSNYANWVQQKPGKSPRGLIGGTNKRAPGVPARFSGSLLGGKAALTISGAQPEDEADYYCALWYSNHWVFGGGTKLTVLGQPKAAPSVTLFPPSSEELQANKATLVCLISDFYPGAVTVAWKADSSPVKAGVETTTPSKQSNNKYAASSYLSLTPEQWKSHRSYSCQVTHEGSTVEKTVAPTECS
 | 0.31 | 0.49 | 0.57 | 9.2 | no binding | no binding | 83 | 6.1 | 0.57 | 0.57 | no binding | no binding | 2.7 | 0.53 | 4.6 | 0.63 | no binding | no binding | M3287 (bispecific antibody, Humanized variant of M2638, monovalent Fab-scFv; bivalent equivalent is M3292) heavy: EVQLVESGGGLVQPGGSLRLSCAASGFTFSTYAMNWVRQAPGKGLEWVGRIRSKYNNYATYYADSVKGRFTISRDDSKNTLYLQMNSLRAEDTAVYYCVRHGNFGDSYVSWFAYWGQGTLVTVSSASTKGPSVFPLAPSSKSTSGGTAALGCLVKDYFPEPVTVSWNSGALTSGVHTFPAVLQSSGLYSLSSVVTVPSSSLGTQTYICNVNHKPSNTKVDKKVEPKSCGGGGSDIQMTQSPSSLSASVGDRVTITCRSSQSVYNNLLGWYQQKPGKAPKLLIYSASTLASGVPSRFSGSGSGTDFTLTISSLQPEDSATYYCQGTYYTGDWYYPFGCGTKVEIKGGGGSGGGGSGGGGSGGGGSQVQLVESGGGSVQPGRSLRLSCAASGFDFSTYGVSWVRQAPGKCLEWIGYIDPVYGSTHYADSVKGRFTISRDNSKNTLYLQMNSLRAEDTASYYCVRDLYAGSSGYYVIYSLWGQGTSVTVSS light: QAVVTQEPSLTVSPGGTVTLTCGSSTGAVTTSNYANWVQQKPGKSPRGLIGGTNKRAPGVPARFSGSLLGGKAALTISGAQPEDEADYYCALWYSNHWVFGGGTKLTVLGQPKAAPSVTLFPPSSEELQANKATLVCLISDFYPGAVTVAWKADSSPVKAGVETTTPSKQSNNKYAASSYLSLTPEQWKSHRSYSCQVTHEGSTVEKTVAPTECS
